Entries after “also recorded” stand apart in the source; their conditions may differ.
Columns and labels:
OVA-specific serum IgG = assay: Serum total anti-OVA IgG ELISA after s.c. immunization; format: in vivo, BALB/c or C57B1/6 mice
Experimental: Antibody titer measurements. Total IgG titers from sera were measured using an ELISA by adsorbing OVA to flat-bottom transparent 96-well plates at room temperature overnight, blocking overnight with bovine serum albumin, adding serially-diluted serum (starting from a minimal dilution of 200×) for 2 hr, and then detecting bound OVA-specific IgG antibody using HRP-labeled anti-mouse IgG (Bio-Rad). Plates were washed between each step using 0.05% Tween-20 in PBS. HRP developed with tetramethylbenzidine was measured using a Molecular Devices SpectraMax Microplate Reader. Monoclonal mouse anti-OVA IgG1 (clone OVA-14, Sigma-Aldrich, St. Louis, Mo.) was included as a standard reference in each assay. Endpoint titers were defined as the highest dilution at which immunized serum ELISA signal exceeded the average+2 standard deviations of pre-immune sera analyzed in parallel. To interpret our titer values in more physiological terms, we used OVA-14 as a standard to determine the concentration of OVA-specific IgG as equivalents of this monoclonal antibody.

[1] = test system: naïve OT-I (CD8+) T-cells; assay: Priming of naïve OT-I T-cells by particle-pulsed splenic DCs (CFSE dilution); format: cell-based, mice; settings: DCs pulsed with 10,000-fold higher doses of soluble OVA than the particle dose, with or without MPLA; not shown
Experimental: Responses of naïve CD4^+ or CD8^+ T-cells transgenically expressing T cell receptors specific for OVA-derived peptides were assessed by in vitro co-culture of OT-II or OT-I primary T-cells with particle-pulsed DCs. Primary dendritic cells were isolated from spleens of C57B1/6 mice by digesting spleens with collagenase and isolating DCs using a CD11c^+ magnetic bead isolation kit (Miltenyi Biotec). In parallel, naïve CD4^+ T-cells or CD8+ T-cells were isolated from OT-II or OT-I TCR-transgenic mice, respectively (Jackson Laboratories), and labeled with CFSE to trace cell division following the manufacturer's instructions. OVA-loaded particles with post-inserted MPLA or soluble OVA/MPLA were added to splenic DCs (12,500 cells/well) at titrated cell:antigen ratios (starting from 40:1 particles:DC, corresponding to 6.2 μg particles), and incubated for 3 hr in a total volume of 150 μL/well at 37° C. and 5% CO2. CFSE-labeled OT-I or OT-II cells (50,000 cells/well) were then added to DCs in a volume of 50 μL complete RPMI media. This total culture volume of 200 μL/well was incubated for 3 days at 37° C. and 5% CO2 to allow proliferation of T-cells, and CFSE dilution was then measured by flow cytometry.

OVA-specific IgG = assay: Avidity of OVA-specific IgG (ELISA with 6M urea wash); format: in vivo, BALB/c mice; settings: BALB/c, 10 ng OVA, boost day 21, day 28 sera, 6M urea 10 min
Experimental: The avidity of IgG responses to immunization was measured using an ELISA analysis of serum binding in the presence of urea using a commonly reported procedure from the literature. Serum titer analysis was conducted in duplicate assay plates until serum adsorption was complete. At this point, one plate was incubated in the presence of 6M urea for 10 min followed by washing and detection of bound IgG on both plates as above. Avidity indices were defined as the serum dilution of urea-treated samples where the ELISA absorbance was 0.5 divided by the dilution of untreated samples giving the same absorbance.

Molecule: CCCCCCCCCCCCCCCCCCCCCCCCCC(=O)N[C@@H](CO[C@H]1O[C@H](CO)[C@H](O)[C@H](O)[C@H]1O)[C@H](O)[C@H](O)CCCCCCCCCCCCCC [αGC solution, α-galactosylceramide, reference compound]
- IgG titers 14 days after a single immunization, αGC dose titration (OVA-specific serum IgG; BALB/c, 2 ng OVA on microparticles with 10 ng, 100 ng, or 1 μg αGC (on particles or in solution 10 min before at same site)): only a fraction of mice had detectable titers; also recorded: equally effective

B1: ovalbumin (protein, UniProt P01012 2-386, looked up)
Ovalbumin: GSIGAASMEFCFDVFKELKVHHANENIFYCPIAIMSALAMVYLGAKDSTRTQINKVVRFDKLPGFGDSIEAQCGTSVNVHSSLRDILNQITKPNDVYSFSLASRLYAEERYPILPEYLQCVKELYRGGLEPINFQTAADQARELINSWVESQTNGIIRNVLQPSSVDSQTAMVLVNAIVFKGLWEKAFKDEDTQAMPFRVTEQESKPVQMMYQIGLFRVASMASEKMKILELPFASGTMSMLVLLPDEVSGLEQLESIINFEKLTEWTSSNVMEERKIKVYLPRMKMEEKYNLTSVLMAMGITDVFSSSANLSGISSAESLKISQAVHAAHAEINEAGREVVGSAEAGVDAASVSEEFRADHPFLFCIKHIATNAVLFFGRCVSP
notes: model protein antigen ovalbumin dissolved in saline
- OT-I proliferation [1]: minimal OT-I proliferation
- avidity: IgG binding following urea washes (OVA-specific IgG): no binding
- anti-OVA IgG titers (OVA-specific serum IgG; BALB/c, 10 ng OVA s.c. prime, boost with same dose 3 weeks later, 1.3 μg MPLA and 600 ng αGC where used): only a subset of mice responded
- time serum titers were maintained (OVA-specific serum IgG; BALB/c, 10 ng OVA s.c., boost 3 weeks later): not sustained in a majority of the mice

B2: SAT(PEG)4-modified OVA: ovalbumin modified with the heterobifunctional cross-linker SAT(PEG)4 for particle coupling (protein, UniProt P01012 2-386, looked up)
Ovalbumin: GSIGAASMEFCFDVFKELKVHHANENIFYCPIAIMSALAMVYLGAKDSTRTQINKVVRFDKLPGFGDSIEAQCGTSVNVHSSLRDILNQITKPNDVYSFSLASRLYAEERYPILPEYLQCVKELYRGGLEPINFQTAADQARELINSWVESQTNGIIRNVLQPSSVDSQTAMVLVNAIVFKGLWEKAFKDEDTQAMPFRVTEQESKPVQMMYQIGLFRVASMASEKMKILELPFASGTMSMLVLLPDEVSGLEQLESIINFEKLTEWTSSNVMEERKIKVYLPRMKMEEKYNLTSVLMAMGITDVFSSSANLSGISSAESLKISQAVHAAHAEINEAGREVVGSAEAGVDAASVSEEFRADHPFLFCIKHIATNAVLFFGRCVSP
modifications: SAT(PEG)4 cross-linker modified
notes: ovalbumin modified with the heterobifunctional cross-linker SAT(PEG)4 for particle coupling
- influence of SAT(PEG)4 modification on the protein's immunogenicity (OVA-specific serum IgG; data not shown): no significant influence
